Results published in paper PMC2693874 (2009).
Read-outs that look alike come from different tables or passages of the source. One block for each molecule: values may come before it.

Tests used:
[1] = target: OG488-EGR-labeled fXa-R165A; assay: fluorescence polarisation
[2] = target: OG488-EGR-labeled fXa-des-Gla; assay: fluorescence polarisation
OG488-EGR-labeled E2-fXa = assay: fluorescence polarisation
[3] = target: OG488-EGR-labeled wild-type factor Xa; assay: fluorescence polarisation
[4] = target: OG488-EGR-labeled fXa-R165A; assay: fluorescence polarisation; remark: listed apart in the source
factor Va = target: T1, factor Va (Homo sapiens, UniProt P12259); assay: prothrombinase assay
T1 chain 1: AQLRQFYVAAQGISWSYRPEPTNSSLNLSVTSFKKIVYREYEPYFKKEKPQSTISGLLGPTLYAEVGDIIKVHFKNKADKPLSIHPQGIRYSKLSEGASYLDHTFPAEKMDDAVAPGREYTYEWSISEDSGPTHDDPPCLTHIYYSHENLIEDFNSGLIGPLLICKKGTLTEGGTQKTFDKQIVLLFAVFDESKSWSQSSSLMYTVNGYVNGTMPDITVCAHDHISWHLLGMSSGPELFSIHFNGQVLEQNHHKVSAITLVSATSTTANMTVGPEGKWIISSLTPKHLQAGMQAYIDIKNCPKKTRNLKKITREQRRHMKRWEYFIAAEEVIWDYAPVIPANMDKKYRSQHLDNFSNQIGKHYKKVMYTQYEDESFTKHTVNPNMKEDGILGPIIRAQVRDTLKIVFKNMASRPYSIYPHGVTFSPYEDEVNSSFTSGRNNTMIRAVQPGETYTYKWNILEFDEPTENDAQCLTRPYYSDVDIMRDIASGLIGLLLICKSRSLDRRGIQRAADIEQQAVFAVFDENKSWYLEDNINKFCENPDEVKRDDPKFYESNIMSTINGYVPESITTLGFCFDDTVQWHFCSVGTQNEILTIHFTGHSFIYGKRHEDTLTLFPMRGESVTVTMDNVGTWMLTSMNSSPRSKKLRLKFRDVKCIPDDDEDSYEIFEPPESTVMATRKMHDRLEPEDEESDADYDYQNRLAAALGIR
T1 chain 2: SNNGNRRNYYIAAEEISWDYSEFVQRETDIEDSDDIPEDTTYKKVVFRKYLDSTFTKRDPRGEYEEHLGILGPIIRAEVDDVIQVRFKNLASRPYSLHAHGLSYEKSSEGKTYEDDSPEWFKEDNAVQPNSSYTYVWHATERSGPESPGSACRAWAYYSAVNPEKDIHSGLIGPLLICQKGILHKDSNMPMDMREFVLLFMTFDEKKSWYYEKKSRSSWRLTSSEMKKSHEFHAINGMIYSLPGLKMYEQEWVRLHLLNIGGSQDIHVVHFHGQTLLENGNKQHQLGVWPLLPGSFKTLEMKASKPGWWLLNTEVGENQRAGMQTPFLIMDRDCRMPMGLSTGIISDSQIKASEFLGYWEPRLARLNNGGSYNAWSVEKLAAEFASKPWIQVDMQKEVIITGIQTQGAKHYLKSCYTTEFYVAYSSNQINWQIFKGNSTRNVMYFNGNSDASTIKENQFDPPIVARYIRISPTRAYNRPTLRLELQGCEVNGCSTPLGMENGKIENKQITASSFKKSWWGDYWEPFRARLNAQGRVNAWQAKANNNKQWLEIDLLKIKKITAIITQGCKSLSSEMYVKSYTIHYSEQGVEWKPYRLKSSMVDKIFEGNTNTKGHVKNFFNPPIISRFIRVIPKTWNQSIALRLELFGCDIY

Kd [1]: 10.3 nM
Kd [2]: 58 nM
Kd (OG488-EGR-labeled E2-fXa): 62 nM
Kd [3]: 1.5 nM
Kd [4]: 10.5 nM
Molecule: human plasma factor Va (from UniProt P12259 29-737; P12259 1574-2224) (natural protein)

Kd (factor Va): 0.5 nM
B1: factor Xa (protein)
chain: IVGGQECKDGECPWQALLINEENEGFCGGTILSEFYILTAAHCLYQAKRFKVRVGDRNTEQEEGGEAVHEVEVVIKHNRFTKETYDFDIAVLRLKTPITFRMNVAPACLPERDWAESTLMTQKTGIVSGFGRTHEKGRQSTRLKMLEVPYVDRNSCKLSSSFIITQNMFCAGYDTKQEDACQGDSGGPHVTRFKDTYFVTGIVSWGEGCARKGKYGIYTKVTAFLKWIDRSMKTRGLPKAKSHAPEVITSSPLK
modifications: PCPS vesicles
